Reference: patent US20240010730A1 (SHANGHAI HUAOTA BIOPHARMACEUTICAL, published 2024)
Where two headings read alike, the source gives them in different places.

T1: Human TIGIT (SPR analyte, Example 7) (human, UniProt Q495A1 22-141, limits assumed)
T1 sequence (looked up): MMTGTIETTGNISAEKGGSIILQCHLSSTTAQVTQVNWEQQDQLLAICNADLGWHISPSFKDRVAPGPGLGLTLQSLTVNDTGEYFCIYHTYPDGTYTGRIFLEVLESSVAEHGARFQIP

T2: human TIGIT on CHOK1-huTIGIT-2A3 cells (human, UniProt Q495A1 22-244)
T2 construct: whole, on cells; also called cells expressing the human TIGIT
T2 sequence (looked up): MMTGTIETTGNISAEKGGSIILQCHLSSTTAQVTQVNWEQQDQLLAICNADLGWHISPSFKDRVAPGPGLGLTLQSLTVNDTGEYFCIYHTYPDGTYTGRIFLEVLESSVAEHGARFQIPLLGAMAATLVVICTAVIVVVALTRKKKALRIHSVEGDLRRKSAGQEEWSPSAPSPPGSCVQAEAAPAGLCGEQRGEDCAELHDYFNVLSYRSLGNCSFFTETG


Assays:
[1] = biological target: TIGIT on Jurkat-TIGIT-22G8 cells; test: cell-based or functional assay
[2] = biological target: T1, Human TIGIT (SPR analyte, Example 7); test: SPR (Biacore 8K), antibody captured by anti-human chip, antigen analyte, 1:1 model
Description: (§1) The Anti-Human Capture-CMS chip (GE, #BR-1005-30) was prepared according to the method for conjugating the Human Antibody Capture Kit (GE, #BR-1008-39) to the Amino Conjugation Kit (GE, BR-1000-50).

[3] = biological target: T3, Human PD-L1 (SPR analyte, Example 7) (human, UniProt Q9NZQ7 19-238, limits assumed); test: as above
Description: as §1

[4] = biological target: T2, human TIGIT on CHOK1-huTIGIT-2A3 cells; test: flow cytometry competition with huCD155-moFc on CHOK1-huTIGIT-2A3 cells
Description: After reaction, the 96-well U-shaped plate was resuspended with 1% BSA/PBS, centrifuged (300 g×3 min) to discard the supernatant, and washed once in such way; and Alexa488-goat anti-mouse-Fc (Jackson ImmunoResearch, #115-545-071) diluted at 1:300 was added to react for 15 min in the dark at room temperature. After reaction, the 96-well U-shaped plate was resuspended with 1% BSA/PBS, centrifuged (300 g×3 min) to discard the supernatant, washed three times in such a way, and finally resuspended with 100 μL of 1% BSA/PBS for each wall; and the fluorescence intensity of an FITC channel was detected with a flow cytometer (BD, #CantoII).

[5] = biological target: T2, human TIGIT on CHOK1-huTIGIT-2A3 cells; test: flow cytometry on CHOK1-huTIGIT-2A3 cells
Description: All chimeric antibodies and humanized antibodies were diluted to 20 μg/ml with 1% BSA in PBS solution (1% BSA/PBS), were added to a 96-well U-shaped plate at 20 μL per well; and a negative control (with 1% BSA/PBS added only) was set up at the same time. The suspension of cells (CHOK1-huTIGIT-2A3, Huabo Biopharm) expressing human TIGIT during the logarithmic growth phase were centrifuged (1000 rpm×5 min) to discard the culture medium; and the cells were resuspended with 1% BSA/PBS until the density of viable cells was 1×10⁶/mL, and were added, at 20 μL (2×10⁴ cells) per well, to the 96-well U-shaped plate with the anti-TIGIT antibody to react for 30 min at room temperature. After reaction, the 96-well U-shaped plate was resuspended with 1% BSA/PBS, centrifuged (300 g×3 min) to discard the supernatant, and washed once in such a way; and PE-goat anti-human-Fc (Jackson ImmunoResearch, #109-115-098) diluted at 1:200 was added to react for 15 min in the dark at room temperature. After reaction, the 96-well U-shaped plate was resuspended with 1% BSA/PBS, centrifuged (300 g×3 min) to discard the supernatant, washed three times in such a way, and finally resuspended with 100 μL of 1% BSA/PBS for each wall; and the fluorescence intensity of a PE channel was detected with a flow cytometer (BD, #CantoII).

[6] = biological target: T1, Human TIGIT (SPR analyte, Example 7); test: SPR (Biacore 8K), antibody captured by anti-human chip, antigen analyte, 1:1 model; remark: listed apart in the source
Description: as §1

[7] = biological target: T3, Human PD-L1 (SPR analyte, Example 7); test: as above; remark: listed apart in the source
Description: as §1

[8] = biological target: PD-L1 on CHO-K1-0S8-PD-L1-8D6 cells; test: cell-based or functional assay
Sequence of PD-L1 on CHO-K1-0S8-PD-L1-8D6 cells (Q9NZQ7 whole entry): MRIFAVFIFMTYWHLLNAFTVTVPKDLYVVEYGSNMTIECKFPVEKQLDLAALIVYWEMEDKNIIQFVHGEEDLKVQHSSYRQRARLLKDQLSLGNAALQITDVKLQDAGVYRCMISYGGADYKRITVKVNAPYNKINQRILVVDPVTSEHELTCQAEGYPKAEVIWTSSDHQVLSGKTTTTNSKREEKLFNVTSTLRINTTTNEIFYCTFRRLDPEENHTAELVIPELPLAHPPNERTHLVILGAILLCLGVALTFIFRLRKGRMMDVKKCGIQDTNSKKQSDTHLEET

T3 sequence (Q9NZQ7 19-238 limits assumed): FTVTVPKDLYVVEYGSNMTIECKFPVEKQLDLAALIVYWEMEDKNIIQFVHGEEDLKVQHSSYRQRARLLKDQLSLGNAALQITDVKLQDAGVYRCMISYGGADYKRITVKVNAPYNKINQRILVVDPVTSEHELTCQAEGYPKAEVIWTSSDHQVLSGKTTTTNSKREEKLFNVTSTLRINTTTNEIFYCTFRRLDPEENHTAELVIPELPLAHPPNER

Row | EC50 (nM), IL2 secretion of Jurkat-TIGIT-22G8 cells with PHA and CD155 [1] [nM] | Kd [2] [nM] | koff [2] [s⁻¹] | kon [2] [M⁻¹ s⁻¹] | Kd [3] [nM] | koff [3] [s⁻¹] | kon [3] [M⁻¹ s⁻¹] | IC50 [4] [µg/mL] | EC50 [5] [µg/mL] | Binder | also measured
1 | 12.9 | 0.0476 | 0.0002 | 4.19e+06 | 0.893 | 0.000419 | 469000 |  |  | 900686 (bispecific antibody, human IgG1, kappa, also called TIGIT-IgG-PD-L1-scFv) heavy: not shown light: DIQMTQSPSSLSASVGDRVTITCRASQHVSTAVNWYQQKPGKAPKLLIYSASYLYSGVPSRFSGSRSGTDFTLTISSLQPEDFATYYCQQHYITPYTFGQGTKLEIKRTVAAPSVFIFPPSDEQLKSGTASVVCLLNNFYPREAKVQWKVDNALQSGNSQESVTEQDSKDSTYSLSSTLTLSKADYEKHKVYACEVTHQGLSSPVTKSFNRGEC | 
2 | 8.96 | 0.0693 | 0.000245 | 3.53e+06 | 1.47 | 0.000427 | 290000 |  |  | 900681 (bispecific antibody, human IgG1, kappa, also called TIGIT-IgG-PD-L1-scFv) heavy: not shown light: DIQMTQSPSSLSASVGDRVTITCRASQHVSTAVNWYQQKPGKAPKLLIYSASYLYSGVPSRFSGSRSGTDFTLTISSLQPEDFATYYCQQHYITPYTFGQGTKLEIKRTVAAPSVFIFPPSDEQLKSGTASVVCLLNNFYPREAKVQWKVDNALQSGNSQESVTEQDSKDSTYSLSSTLTLSKADYEKHKVYACEVTHQGLSSPVTKSFNRGEC | 
3 | 11.1 | 0.0502 | 0.000184 | 3.67e+06 | 1.29 | 0.000376 | 291000 |  |  | 900684 (bispecific antibody, human IgG1, kappa, also called TIGIT-IgG-PD-L1-scFv) heavy: not shown light: DIQMTQSPSSLSASVGDRVTITCRASQHVSTAVNWYQQKPGKAPKLLIYSASYLYSGVPSRFSGSRSGTDFTLTISSLQPEDFATYYCQQHYITPYTFGQGTKLEIKRTVAAPSVFIFPPSDEQLKSGTASVVCLLNNFYPREAKVQWKVDNALQSGNSQESVTEQDSKDSTYSLSSTLTLSKADYEKHKVYACEVTHQGLSSPVTKSFNRGEC | 
4 | 8.64 | 0.0478 | 0.000196 | 4.1e+06 | 1.05 | 0.000492 | 469000 |  |  | 900683 (bispecific antibody, human IgG1, kappa, also called TIGIT-IgG-PD-L1-scFv) heavy: not shown light: DIQMTQSPSSLSASVGDRVTITCRASQHVSTAVNWYQQKPGKAPKLLIYSASYLYSGVPSRFSGSRSGTDFTLTISSLQPEDFATYYCQQHYITPYTFGQGTKLEIKRTVAAPSVFIFPPSDEQLKSGTASVVCLLNNFYPREAKVQWKVDNALQSGNSQESVTEQDSKDSTYSLSSTLTLSKADYEKHKVYACEVTHQGLSSPVTKSFNRGEC | 
5 | 11 | 0.0515 | 0.000204 | 3.96e+06 | 1.37 | 0.00038 | 278000 |  |  | 900687 (bispecific antibody, human IgG1, kappa, also called TIGIT-IgG-PD-L1-scFv) heavy: not shown light: DIQMTQSPSSLSASVGDRVTITCRASQHVSTAVNWYQQKPGKAPKLLIYSASYLYSGVPSRFSGSRSGTDFTLTISSLQPEDFATYYCQQHYITPYTFGQGTKLEIKRTVAAPSVFIFPPSDEQLKSGTASVVCLLNNFYPREAKVQWKVDNALQSGNSQESVTEQDSKDSTYSLSSTLTLSKADYEKHKVYACEVTHQGLSSPVTKSFNRGEC | 
6 | 12.1 | 0.0428 | 0.00021 | 4.89e+06 | 2.76 | 0.000527 | 191000 |  |  | 900685 (bispecific antibody, human IgG1, kappa, also called TIGIT-IgG-PD-L1-scFv) heavy: not shown light: DIQMTQSPSSLSASVGDRVTITCRASQHVSTAVNWYQQKPGKAPKLLIYSASYLYSGVPSRFSGSRSGTDFTLTISSLQPEDFATYYCQQHYITPYTFGQGTKLEIKRTVAAPSVFIFPPSDEQLKSGTASVVCLLNNFYPREAKVQWKVDNALQSGNSQESVTEQDSKDSTYSLSSTLTLSKADYEKHKVYACEVTHQGLSSPVTKSFNRGEC | 
7 |  |  |  |  |  |  |  | 0.0665 | 0.0581 | HB0031 (antibody, human IgG1, kappa, V domains shown, Humanized anti-TIGIT IgG1; also called 900464) VH: QVQLQESGPGLVKPSETLSLTCTVSGYSITSDYAWIWIRQPPGKGLEWIGYITSSGSTYYNPSLKSRVTFSVDTSKNQFSLKLSSVTAADTATYYCARLDFGNYGGAMDYWGQGTLVTVSS VL: DIQMTQSPSSLSASVGDRVTITCKASQHVSTALAWYQQKPGKAPKLLIYSASYLQSGVPSRFSGSRSGTDFTLTISSLQPEDFATYYCQQHYITPYTFGQGTKLEIKR | 
8 |  |  |  |  |  |  |  | 0.0919 | 0.0785 | HB0032 (antibody, human IgG1, kappa, V domains shown, Humanized anti-TIGIT IgG1; also called 900466) VH: QVQLQESGPGLVKPSETLSLTCTVSGYSITSDYAWIWIRQPPGKKLEWIGYITSSGSTYYNPSLKSRVTFSVDTSKNQFSLKLSSVTAADTATYYCARLDFGNYGGAMDYWGQGTLVTVSS VL: DIQMTQSPSSLSASVGDRVTITCKASQHVSTAVNWYQQKPGKAPKLLIYSASYRQSGVPSRFSGSGSGTDFTLTISSLQPEDFATYYCQQHYITPYTFGQGTKLEIKR | 
9 |  |  |  |  |  |  |  | 0.056 | 0.0514 | HB0033 (antibody, human IgG1, kappa, V domains shown, Humanized anti-TIGIT IgG1; also called 900476) VH: QVQLQESGPGLVKPSETLSLTCTVSGYSITSDYAWIWIRQPPGNKLEWIGYITSSGSTYYNPSLKSRVTFSVDTSKNQFSLKLSSVTAADTATYYCARLDFGNYGGAMDYWGQGTLVTVSS VL: DIQMTQSPSSLSASVGDRVTITCKASQHVSTALAWYQQKPGKAPKLLIYSASYLQSGVPSRFSGSRSGTDFTLTISSLQPEDFATYYCQQHYITPYTFGQGTKLEIKR | 
10 |  |  |  |  |  |  |  |  |  | 900691 (bispecific antibody, human IgG1, kappa, also called PD-L1-IgG-TIGIT-scFv) heavy: not shown light: DVVMTQTPLSLSVTPGQPASISCKSSQSLANSYGNTYLSWYLHKPGQSPQLLIYGISNRFSGVPDRFSGSGSGTDFTLKISRVEAEDVGVYYCLQGTHQPPTFGQGTKLEIKRTVAAPSVFIFPPSDEQLKSGTASVVCLLNNFYPREAKVQWKVDNALQSGNSQESVTEQDSKDSTYSLSSTLTLSKADYEKHKVYACEVTHQGLSSPVTKSFNRGEC | Kd [6]: 0.0925 nM; koff [6]: 9.13e-05 s⁻¹; kon [6]: 987000 M⁻¹ s⁻¹; Kd [7]: 2.24 nM; koff [7]: 0.000481 s⁻¹; kon [7]: 214000 M⁻¹ s⁻¹; EC50 (nM), luciferase reporter, Jurkat-NFAT-PD-1-5B8 cells with CHO-K1-0S8-PD-L1-8D6 cells [8]: 1.84 nM
11 |  |  |  |  |  |  |  | 0.069 | 0.075 | 900428 (antibody, human IgG1, kappa, L234A L235A, V domains shown, also called anti-TIGIT chimeric antibody 900428) VH: DVQLQESGPGLVKPSQSLSLTCTVTGYSITSDYAWNWIRQFPGNRLEWMGYISYSGAPRYNPSLKSRISITRDTSKNQFFLQLSFVTTEDTATYYCASLGTDYYAMDYWGQGTSVIVSS VL: DIVMTQSHKFMFTSVGDRVSITCKASQHVSNAVAWYQQKPGQSPKLLIHSASYRYTGVPDRFTGRGSGTDFTFTINSVQAEDLAVYYCQQYYSLPWTFGGGTKLEIKR | 
12 |  |  |  |  |  |  |  | 0.065 | 0.06 | 900423 (antibody, human IgG1, kappa, L234A L235A, V domains shown, also called anti-TIGIT chimeric antibody 900423) VH: DVQLQESGPGLVKPSQSLSLTCTVTGYSITSDYAWNWIRQFPGNRLEWMGYISYSGAPRYNPSLKSRISITRDTSKNQFFLQLSFVTTEDTATYYCASLGTDYYAMDYWGQGTSVIVSS VL: DIVMTQSHKFMFTSVGDRVSITCKASQHVSNAVAWYQQKPGQSPKLLIHSASYRYTGVPDRFIGRGSGTDFTFTISSVQAEDLAVYYCQQYYSLPWTFGGGTKLEIKR | 
13 |  |  |  |  |  |  |  | 0.062 | 0.053 | 900424 (antibody, human IgG1, kappa, L234A L235A, V domains shown, Chimeric form of B3/29F6; also called ADCC KO type human-mouse chimeric antibody (number 900424)) VH: DVQLQESGPGLVKPSQSLSLTCTVTGYSITSDYAWIWIRQFPGNKVEWMGYITSSGSTSYNPSLKSRISFTRDTSKNQFFLQLTSVTTEDTATYYCARLDFGNYGGAMDYWGQGTSVTVSS VL: DIVMTQSHKFMSTSIGDRVSITCKASQHVSTAVAWYQQKPGQSPKLLIYSASYRYTGVPDRFTGSRSGTDFTFTISSVQAEDLAVYYCQQHYITPYTFGGGTKLEIKR | 
